Results from article PMC6677171 (2019).

Target: Mis16 (S. pombe), full length, affinity tag removed (S. pombe, UniProt O94244 1-430)
Assay: ITC

Chain of Mis16 (S. pombe), full length, affinity tag removed (O94244 whole entry): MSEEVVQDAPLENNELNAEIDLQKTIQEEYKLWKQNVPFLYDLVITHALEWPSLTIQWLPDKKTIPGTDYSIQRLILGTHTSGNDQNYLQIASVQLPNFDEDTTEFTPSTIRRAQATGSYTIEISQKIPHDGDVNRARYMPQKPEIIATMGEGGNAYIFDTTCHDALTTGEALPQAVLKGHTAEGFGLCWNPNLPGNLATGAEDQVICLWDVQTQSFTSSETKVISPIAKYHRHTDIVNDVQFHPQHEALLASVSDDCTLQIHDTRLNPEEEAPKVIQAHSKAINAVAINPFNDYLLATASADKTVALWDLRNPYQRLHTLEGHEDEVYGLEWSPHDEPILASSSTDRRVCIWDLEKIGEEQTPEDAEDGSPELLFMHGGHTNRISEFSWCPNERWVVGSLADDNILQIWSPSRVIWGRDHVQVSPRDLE

- Kd: > 1 µM
B1: Mis19 C-terminal peptide (residues 97–112) R105A (peptide)
peptide: LHNRVFLRANVRAVKM
